{
  "source": "patent US20240279331A1",
  "about": "(University of California, published 2024)",
  "binders": {"B1": {"name": "NCR1.11 Fab (Fab)", "heavy": "EVQLVESGGGLVQPGGSLRLSCAASGFNVYYSYIHWVRQAPGKGLEWVASISSYYGSTYYADSVKGRFTISADTSKNTAYLQMNSLRAEDTAVYYCARSRYLQDYWSSWWVSWYGLDYWGQGTLVTVSSASTKGPSVFPLAPSSKSTSGGTAALGCLVKDYFPEPVTVSWNSGALTSGVHTFPAVLQSSGLYSLSSVVTVPSSSLGTQTYICNVNHKPSNTKVDKKVEPKSCDKTHT", "light": "DIQMTQSPSSLSASVGDRVTITCRASQSVSSAVAWYQQKPGKAPKLLIYSASSLYSGVPSRFSGSRSGTDFTLTISSLQPEDFATYYCQQSSSSLITFGQGTKVEIKRTVAAPSVFIFPPSDSQLKSGTASVVCLLNNFYPREAKVQWKVDNALQSGNSQESVTEQDSKDSTYSLSSTLTLSKADYEKHKVYACEVTHQGLSSPVTKSFNRGEC", "notes": "also called anti-NCR1 Fab #27"}},
  "key": {"[1]": {"molecular_target": "T1, NCR1 extracellular domain TEV-cleavable Fc-fusion, biotinylated (human, UniProt O76036 22-258, biotinylated (site not stated))", "T1 construct": "extracellular domain; Antigen of the phage selections and Fab-phage ELISAs; not shown: TEV cleavage site and Fc domain", "T1 sequence (O76036 22-258)": "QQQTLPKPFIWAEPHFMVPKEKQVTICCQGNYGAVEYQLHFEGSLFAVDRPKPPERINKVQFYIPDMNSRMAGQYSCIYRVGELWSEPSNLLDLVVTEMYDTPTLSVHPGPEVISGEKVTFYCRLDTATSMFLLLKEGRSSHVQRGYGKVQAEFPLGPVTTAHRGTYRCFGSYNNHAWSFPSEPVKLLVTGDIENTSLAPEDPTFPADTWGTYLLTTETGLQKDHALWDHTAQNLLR", "test": "Fab-phage selection and Fab-phage ELISA on biotinylated ECD Fc-fusion (antigen column of Table S1)", "description": "To generate antibodies against these antigens, we expressed the extracellular domains (ECDs) of these proteins as TEV-cleavable Fc-fusions and performed Fab-phage display selections to enrich for high affinity antibody binders (FIG. S1), as previously described [Hornsby, M. et al., Mol Cell Proteomics. 14(10), 2833-2847 (2015)]. After each selection, Fab-phage ELISAs were performed to determine the relative affinity and selectivity of these binders for their antigen targets (FIG. S2).\nTEV-cleavable Fc-fusion proteins were expressed and biotinylated in Expi293F cells using the standard expression protocol. Media were harvested after 4 days of expression and protein was purified by protein A affinity chromatography. Phage selections were performed according to previously established protocols1 with the Fab-phage Library E2. Non-specific binders were depleted from the library by incubating the phage pool with Fc-domain immobilized on streptavidin beads. Fab phage were selected using biotinylated Fc-fusions that were captured on streptavidin-coated magnetic beads, and were released through TEV elution. Each selection consists of four rounds. With each round, decreasing amounts of Fc-fusions (1 μM, 100 nM, 10 nM, and […]) were used. ELISAs were performed for 96 individual Fab-phage clones from the third or fourth rounds of selection to evaluate for affinity and selectivity.\nELISAs were performed as previously described1. In brief, Maxisorp plates were coated with 10 μg/mL of Neutravidin overnight at 4° C. Biotinylated target antigen (20 nM) was captured on the Neutravidin coated plates for 30 min, and then exposed to a 1:5 dilution of phage supernatants for 30 min. Bound phage were detected via a horseradish-peroxidase-conjugated anti-phage monoclonal antibody (GE Lifesciences)."}, "[2]": {"molecular_target": "T2, NCR1 extracellular domain fused to a generic transmembrane domain, on tetracycline-inducible FlpIn cells (human, UniProt O76036 22-258)", "T2 construct": "extracellular domain; HEK293 FlpIn cells, expression on tetracycline addition; also called NCR1 over expression cell line; not shown: transmembrane domain of platelet-derived growth factor (so in the source) with a HA tag", "T2 sequence (O76036 22-258)": "as above", "test": "flow cytometry, Fab on tetracycline-inducible cells over-expressing the ECD (FIG. S5)", "description": "(§1) To investigate the specificity of both activating and non-functional antibodies for their receptor targets, we developed a tetracycline-inducible cell line for each protein target—CD16, NCR1, NCR3, CD244, TNFRSF9, and TNFSF4. The ECDs of these proteins were fused to a generic transmembrane domain and were expressed upon tetracycline addition.\n(§2) Titrations were performed on primary human NK cells or tetracycline induced overexpression cell lines as indicated. When tetracycline induced overexpression cell lines were used, cells were dosed with 10 μg/mL tetracycline for 2 days prior to staining. The starting concentration of each Fab or bispecific antibody was 1 μM, and serial 1:5 dilutions were performed. Antibodies were incubated with cells for 1 hr at 4° C., washed 2 times in 3% BSA in PBS pH 7.4, and stained for 30 min with an Alexafluor-647 conjugated goat anti-human IgG F(ab′)2 fragment (Jackson ImmunoResearch Laboratories) at a 1:50 dilution. After an additional 3 washes, cells were fixed and fluorescence was quantified using a CytoFLEX (Beckman Coulter). All flow cytometry data were analyzed using FlowJo software."}, "[3]": {"molecular_target": "T3, CD16 extracellular domain fused to a generic transmembrane domain, on tetracycline-inducible FlpIn cells (human, UniProt P08637 17-208)", "T3 construct": "extracellular domain; HEK293 FlpIn cells, expression on tetracycline addition; also called CD16 over expression cell line; CD16A; not shown: transmembrane domain of platelet-derived growth factor (so in the source) with a HA tag", "T3 sequence (P08637 17-208)": "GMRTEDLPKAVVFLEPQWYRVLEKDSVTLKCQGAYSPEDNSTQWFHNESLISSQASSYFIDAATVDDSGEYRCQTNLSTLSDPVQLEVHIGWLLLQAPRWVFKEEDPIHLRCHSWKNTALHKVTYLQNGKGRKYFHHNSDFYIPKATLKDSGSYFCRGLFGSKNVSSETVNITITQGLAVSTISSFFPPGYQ", "test": "flow cytometry, Fab on tetracycline-inducible cell lines over-expressing each ECD (FIG. S5)", "description": "as §1, §2"}, "[4]": {"molecular_target": "T4, CD244 extracellular domain fused to a generic transmembrane domain, on tetracycline-inducible FlpIn cells (UniProt Q9BZW8 22-229)", "T4 construct": "extracellular domain; not shown: transmembrane domain of platelet-derived growth factor (so in the source) with a HA tag", "T4 sequence (looked up)": "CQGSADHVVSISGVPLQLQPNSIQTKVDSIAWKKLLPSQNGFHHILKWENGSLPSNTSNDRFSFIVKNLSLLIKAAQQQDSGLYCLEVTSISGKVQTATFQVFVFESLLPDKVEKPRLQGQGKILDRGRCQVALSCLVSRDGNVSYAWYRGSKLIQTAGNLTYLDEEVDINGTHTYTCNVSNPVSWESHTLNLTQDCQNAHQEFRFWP", "test": "flow cytometry, Fab on tetracycline-inducible cell lines over-expressing each ECD (FIG. S5)", "description": "as §1, §2"}, "[5]": {"molecular_target": "T5, NCR3 extracellular domain fused to a generic transmembrane domain, on tetracycline-inducible FlpIn cells (human, UniProt O14931 19-135)", "T5 construct": "extracellular domain; HEK293 FlpIn cells, expression on tetracycline addition; also called NCR3 over expression cell line; not shown: transmembrane domain of platelet-derived growth factor (so in the source) with a HA tag", "T5 sequence (looked up)": "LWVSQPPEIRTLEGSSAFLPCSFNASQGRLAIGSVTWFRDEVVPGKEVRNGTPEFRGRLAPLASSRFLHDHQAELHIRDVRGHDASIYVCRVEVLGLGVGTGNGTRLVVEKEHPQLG", "test": "flow cytometry, Fab on tetracycline-inducible cell lines over-expressing each ECD (FIG. S5)", "description": "as §1, §2"}, "[6]": {"molecular_target": "T6, TNFSF4 extracellular domain fused to a generic transmembrane domain, on tetracycline-inducible FlpIn cells (UniProt P23510 51-183)", "T6 construct": "extracellular domain; also called OX40L; not shown: transmembrane domain of platelet-derived growth factor (so in the source) with a HA tag", "T6 sequence (looked up)": "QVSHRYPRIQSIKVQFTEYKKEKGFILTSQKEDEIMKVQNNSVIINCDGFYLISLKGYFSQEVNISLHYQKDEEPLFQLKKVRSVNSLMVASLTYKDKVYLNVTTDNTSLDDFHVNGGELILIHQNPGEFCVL", "test": "flow cytometry, Fab on tetracycline-inducible cell lines over-expressing each ECD (FIG. S5)", "description": "as §1, §2"}, "[7]": {"molecular_target": "T7, TNFRSF9 extracellular domain fused to a generic transmembrane domain, on tetracycline-inducible FlpIn cells (UniProt Q07011 24-186)", "T7 construct": "extracellular domain; also called 4-1BB; not shown: transmembrane domain of platelet-derived growth factor (so in the source) with a HA tag", "test": "flow cytometry, Fab on tetracycline-inducible cell lines over-expressing each ECD (FIG. S5)", "description": "as §1, §2"}, "[8]": {"molecular_target": "T8, NCR1 as expressed on NK cells (human, UniProt O76036 22-304)", "T8 construct": "whole, on cells; Primary human peripheral blood NK cells; NKL cells stably transduced with NCR1 in the bispecific cytotoxicity assay; also called peripheral blood NK cells; NCR1+ NKL cells", "T8 sequence (O76036 22-304)": "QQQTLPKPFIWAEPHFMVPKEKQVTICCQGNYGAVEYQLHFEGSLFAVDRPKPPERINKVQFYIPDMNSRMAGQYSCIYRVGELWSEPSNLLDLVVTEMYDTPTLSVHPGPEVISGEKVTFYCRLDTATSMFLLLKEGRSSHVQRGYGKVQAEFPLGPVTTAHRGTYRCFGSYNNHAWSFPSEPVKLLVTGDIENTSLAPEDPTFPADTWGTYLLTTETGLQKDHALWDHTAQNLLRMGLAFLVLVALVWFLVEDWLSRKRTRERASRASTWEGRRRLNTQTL", "test": "flow cytometry, Fab titration on peripheral blood NK cells (FIG. S6)", "description": "To evaluate the affinity of the selected antibodies for NK cells, we titrated the nine Fab clones on peripheral blood NK cells.\nas §2"}},
  "data": [
    {"binder": "B1", "values": [
      {"measurement": "binding result", "setting": "[1]", "value": "binds"},
      {"measurement": "binding result", "setting": "[2]", "value": "binds"},
      {"measurement": "binding result", "setting": "[3]", "value": "no binding"},
      {"measurement": "binding result", "setting": "[4]", "value": "no binding"},
      {"measurement": "binding result", "setting": "[5]", "value": "no binding"},
      {"measurement": "binding result", "setting": "[6]", "value": "no binding"},
      {"measurement": "binding result", "setting": "[7]", "value": "no binding"},
      {"measurement": "binding result", "setting": "[8]", "value": "binds"}
    ]}
  ]
}
